For 19 sequences, protein production results are on record in a protein production outcome set (Wang et al. 2014).

The nature of the data set: label from the status in PepcDB records.
With “MENLGDRLEVVAELSLAPGNITLTPDGRLFLSLHQFYQPEMQVAELTQDGLIPFPPQSGNAIITFDTVLGIKSDGNGIVWMLDNGNQSKSVPKLVAWDTLNNQLSRVIYLPPPITLSNSFVNDLAVDLIHNFVYISDPAPDDKAALIRVDLQTGLAARVLQGYPGIAPEDIDLVIDGVPVQIGQPDGTVIRPHLGVNGIVLDAENEWLYLSPMHSTSMYRIKSADLSNLQLTDAELGSKIERYSEKPICDGISIDKDHNIYVGDLAHSAIGVITSADRAYKLLVTDEKLSWTDSFNFGSDGYLYFDCNQLHHSAPLNAGENISAPPYYIFRLKPLAAGIVGR”, the protein production result is on record as “not failed”.

Take “MLKPVALLTPRPSPSRDPAIPDWLLAGKLEPALPRPAAVVRGALLAALDQAQARPLTLLLAPPGFGKTTLLAQWHAHLSTREQGPVAWLSLDEEDADAARFLGHLALALQNAGADHALCATVLHNRDHDPRDATALLIRALRAAPRRISVILDDYDRLGSSPVDELVLRLIEHSGGRLHLVLATRRVPNLPLARLDLHAQLSRIGSTQLALDNTEAQALLGPHVPTPVVDELRNYTEGWPVALQLARLWLQGDTQRQQEVAARFSGRSAQIAAYLAEQVVNDLDPDTRELLLRTSPLERFNAALADAVRQREDSGRLLARLEHFHGLLVPLDGEREWFRYHPLFADFLQQLLDREHPGQSVQLHQRAARWFGDHQHLAEAVRHAWRGNCGELAASYIARAGTWQLLLTHGTHEVRALLRHFDHRTIRDTPALNLTQAHLHIRLGEFSHARLLLERFRDFPAALREPLQRDYTVVVALLRDRLDEICGNPHGLTQIAAQAGALDEDDHLGRGMLLCICATTAIAQGAFAVAERYARNARDTMQRGGSDVGASQAMLSLGQSLFYRGRLSDAEACYQQALSWCARTPQLDRVLEAAAQCLLAQSHYERGHHDDAADLLHPALELLEQHDGGMDVLAAGYGTALGLERVRDHSGRSALLLLEHIEQIAHGRKLARLSELAAAWRLMLLLEHPGNAAIDVLIARTGGESGLAHTLRSPHRWHDRAAMGFALARWHRLAGRSSAALSILGQIEQACLANDNVCHLARTRARIALVLQQRGELVAALPYLYSALDHVALTQSWQAIVELGLPAKAMLRSLRQHDPQTVGGTTRALTIQALLERLSGDDDPAGDIFSERELEVLAQLARGYSNKQIARCLHLSENTVKFHLKNLYRKLDARSREGALAQALQRGLLRGSNQHADQPLQPD”: the protein production result is on record as “failed”.

As to “MTGKAKPKKHTAKEIQAKIDAALTNRGGGKAGIADRTGKEKGGHAKYECPHCKITAPGLKTMQIHHESKHPNIIYEESKLVNLHAVLAPVAESKPKPGIRGSLKK”, the protein production result is recorded as “failed”.

For the sequence “MKKTKVHLISGFLGTGKTTALKSLMAQKDPNEKWVIIVNEFGEIGIDGAVLSDNGIPVAEIAGGCLCCTAGPQMGVTVQKMLRDAKPDRLMIEASGLAHAASVIDELKTKPLDSLLEIGAVFTVVDPRQFINPDYAQQALYKDQIGICDVLVASKTDLCTPEQLAEFHDKAAKLFPPKAKVVEVQNAQLDIQWLDIPVIEKSRYRLKALPDNTMGFQSQGFTFPAGRDFDGEKLTNFFNDLPNMTEGLVRAKGVFQVLGTWVWLNWVDGQWGANQVSWRRDSRFELIAKSFDADLIEQKLKDALELEHHHHHH”, the protein production result is recorded as “failed”.

“MKLIKVILSSISQVVLINNPYTGLFILIGLFAVNWKVGISAMIASVMTWILAPYMNYTKEEIESGLAGFNPVLTAIALTLFLDSNWSGILITFVATILTLPIGAAVREVLKPHKIAFLTSPYVIMTWITLLIPNQLKTLHTQIDIIPEHIEKVSLNNDHTRVHFFQSVLDGFGQIFLMPSIIGGLLILIGIFIGSKKAGIVSIIANIIGFLIIILLGGDYSSINEGIFGYNVVLSAIALGVTFETAIHSYLAMILGIVLTAFIHLGLSTLLAPLGLPTLTWPFIFATWIMLFAGIKNQSV”: the protein production entry is on record as “failed”.

Take “MGLLVVKAQRQLRKIDNSKVFQGVVIAVILLSALLIGAKTHNLSSNVVAILLLMDVAVTVFFAIEISIRYLACPQKKNFFKSGWNIFDTVIVIGSLVPSGGSGVLLARLLRVFRVLRLVSMVPELRLLINALLKAIPRMGYIALLMFVIFYIYAAIGSMYFHSINEVLWGDVSISMLTLFRVATFEDWTDVMYETMAVHPLSWIYYLTFIFLTAFIFLNMMVGTVLEVMSQEHEQFRAEQHGESGDGGEPASRAQIDKLESEIAEIKALLLAKT”: the protein production entry is on record as “failed”.

On to “AIAPVKKKRKAPGVAAAVAEDAGLKKCKIPSYCRSQPPARLISGEEDFSRKKCLAWFYEYAGPDEVVGPEGMEKFCEDIGVEPENIIMLVLAWKLEAESMGFFTKEEWLKGMTSLQCDCTEKLQSRFDFLRSQLNDISSFKNIYTYAFDFARDKDQRSLDIDTAKSMLALLLGRTWPLFSVFYQYLEQSKYRVMNKDQWYNVLEFSRTVHADLSNYDEDGAWPVLLDEFVEWQKNPSNIIARTVVKTMQTL”, for which the protein production result is “failed”.

In the case of “MALLMSVKRQLYLWHRWLGIVACLFMALWFVSGVVMLYVGYPKLTPAERLAHLPALPAGCCAELPEHWAQQPLKALRLTSLGGRAHHLLELADGRRVILDAASGEPLARADAAWALANARQYAGEAGLAYLGTVDEDMWTHSRALDGDRPLHHVQVDDTAGTWLYLSSRTGEVVRDATAQERAWNWVGAWLHWLYPLRGGFGFDNGWRTLVIGLSLGATVMALLGMTVGILRLRLRKRYRSGSCSPYPGGWLRWHHIGGLLFGTVLVLWVFSGLMSMRPWGVTDSRSQLAPQALRQGPLRAMDIGQTVAQAMASLGREPGFNPVEIQWQRLGGDTFLVARNAAGDSRILEAGAPPARALSEQRLLTAARAMAAGVVVQANWQGHYDAYYFTRDAQSMYGFQSRPLPVLRLRFDDPASTWVYLDPASAEVVASHDARQRAGRWLFNLLHSWDLQPLLQRPVLREGLIIALSIGGLVVSLSGVVLGWRRLRRMTARVRG”, the protein production entry is on record as “failed”.

“MSLKTYKGYLIDLDGTMYNGTEKIEEACEFVRTLKDRGVPYLFVTNNSSRTPKQVADKLVSFDIPATEEQVFTTSMATAQHIAQQKKDASVYVIGEEGIRQAIEENGLTFGGENADFVVVGIDRSITYEKFAVGCLAIRNGARFISTNGDIAIPTERGLLPGNGSLTSVLTVSTGVQPVFIGKPESIIMEQAMRVLGTDVSETLMVGDNYATDIMAGINAGMDTLLVHTGVTKREHMTDDMEKPTHAIDSLTEWIPYIEGHHHHHH”: the protein production result was “not failed”.

In the case of “MSVKKDWIAPLALLFVSFIWGATFVVVQNAMSFVGPFTFNGIRFLFAGIILLFVQMIFSKKTSKQDIKQSSLAGLTVGFFLCVGYVLQTFGLLYTTSSKAGFLTGLSIVMVPILSFIFLKQKATIFIVIGIAVATAGLYLLTAGDSFQLNIGDILVLGCAVAFAAHILVNGFFSKKISPLLLSTSQVLAVGMFSSICAFLFEDWEKLFSVALWTNASFLFALFLTSLFATSIAFFIQTSAQKHTSPTRVAIIFAMEPVFAALTGVLVANEQLSISAIIGCLCIFLGMVFVELPSKTKKEAQAA”, the protein production result is listed as “failed”.

As for “MAEEQQPSTDDETAAKSATTKQASPKAETDQSATQPVEDQPTATPEEVAALEKKAADFEDKYLRAEAEVQNMQARFQKEQATLIKYDGQQLAKDVLPVIDNLERALAVEASDDVAAQIKKGVQMTYDHLEDALKRNHVTEIAALGQTFDPTLHQAVQSVPAEDGQTAETVVNVLQKGYQLKDRVLRPAMVVVAQ”, the protein production result was “failed”.

With “MTLHLPGADGTLRAYEPRTEPLPTLRATSGSAFSSRTVFSAAHVVADPYADTTPDGPAAVDWDATLAFRRHLWSHGLGVAEAMDTAQRGMGLDWPTAAELIRRSAAEARATGGRIACGVGTDQLTATAATLADVRSAYEEQLAVVEESGAQAILMASRALAATAKGPDDYLEVYGHLLRQAAEPVILHWLGPMFDPALEGYWGSSDLDAATDTFLEVIAAHPDKVDGIKVSLLDAQREIDLRRRLPRGVRCYTGDDFNYPELIAGDEQGFSHALLGIFDPLGPLAAEAVRVLDTGDTDGFRALLDPTVELSRHLFRAPTRYYKTGVVFLAWLAGHQSHFTMVGGLQSARSLPHLARAYELADGLGLFPDPKPAEERMRNLLALYGVNA”, the protein production entry is reported as “failed”.

With “AIREFNTKEKVFNEFTAVFDVLNHLPAFAKLHLANSMSVRYANTLGISQRNAEVFANRGTSGIDGVISTAYGYALKTSQLVTIITGDLAFFYDRNAFWNNYKPSNLRVVLLNNHGGGIFRMIDGPSALPELDELFETKQTLSARYLATEHGLEYTLCKNLNGLNQALESFFQPSMFGKILEIETDSVKN”, the protein production result is reported as “failed”.

For the sequence “MSRTTPYRLDDQIGFILRQANQRYAALFANGIGNGLTPTQWAALVRLGETGPCPQNQLGRLTAMDAATIKGVVERLDKRGLIQRSADPDDGRRLLVSLSPAGRAELEAGLAAAREINRQALAPLSLQEQETLRGLLARLI”, the protein production result was “not failed”.

Take “MTNQSHDDDDDDEQLPRSLFRLVSLPQKTMTNQTHDDDDDDEQLPLSLTLGSTSYSSQIRPVKSPVPIAPPPEFPGPVTTWPTPADFLATRSMVPDPPPPSHQIPLWMSNYFQQTPNPPQLVTHFFPPSGLAPPSSNLTPPPVKRPVTGSVRIYRSRSTVSKKSDTISPPFPWATNRRGEIQSLEYLESNQITTITGEVQCRHCEKVYQVSYNLRERFAEVVKFYLTEKRKMRDRAHKDWAYPEQRRCELCGREKAVKPVIAERKSQINWLFLLLGQTLGFCTLEQLKNFCKHSKNHRTGAKDRVLYLTYMGLCKMLQPKSDLFTCVAGKR”: the protein production result was “failed”.

Take “MSLKICVIGSSGHFRYALEGLDEECSITGIAPGVPEEDLSKLEKAISEMNIKPKKYNNWWEMLEKEKPDILVINTVFSLNGKILLEALERKIHAFVEKPIATTFEDLEKIRSVYQKVRNEVFFTAMFGIRYRPHFLTAKKLVSEGAVGEIRLVNTQKSYKLGQRPDFYKKRETYGGTIPWVGIHAIDWIHWITGKKFLSVYATHSRLHNSGHGELETTALCHFTLENEVFASLSIDYLRPQGAPTHDDDRMRIVGTRGIVEVINERVFLTDEKGHREVPLVEKGQIFEDFLREIRGQGKCMVTPEDSILTTEIALKARLSADTGQIVLIEGHHHHHH”: the protein production result is recorded as “not failed”.

As to “MENSDDIRLIVKIAQLYYEQDMTQAQIARELGIYRTTISRLLKRGRDQGMVTIAINYDYNENLWLEQQLKQKFGLKDVVVVSGNDEDEETQLAMMGLHGAQLLDRLLEPGDIVGFSWGRAVSALVENLPQAGQSRQLICVPIIGGPSGKLESRYHVNTLTYSAAAKLKGESHLADFPALLDNPLIRNGIMQSQHFKTISAYWDNLDIALVGIGSPAIRDGANWHAFYGGEESDDLNARQVAGDICSRFFDIHGAMVETNMSEKTLSIEMNKLKQARYSIGIAMSEEKYSGIIGALRGKYINCLVTNSSTAELLLK”, the protein production result is reported as “not failed”.

Turning to “MDIVISGGTGLIGRAITEIQGNTYNVITRGPSRTDGNINLVNWNDLRKIRHCDVVINLAGYNIGSKRWNPKIKEEIIRSRIESTRRMVEFISSLDSKPEAFLSGSAIGYYGYGENTVFDENSPPGTGFLAELANAWEDEALKASRYTRTVILRTSNVLSSSGGFLARIMNSRSRRVYYFGDGDQPVSWIHIKDYVNAVKFLMENKDISGPVNMAAPSPVSFADLAHAIAREKGYKEMKIPEFIGKLILGSEMYRELMSGQRVAPKKLTGSGFSFQYPDLESAIKNLLEHHHHHH”, the protein production result is listed as “failed”.

“MNKKILATAVLGTGALSTLFAHQAEASTTHTVRSGESLWSISHHYGITVSKLKSLNGLSSNLIFPNQVLKVSGSSNYSSRSNYGNSSSTYTVRAGDSLSSIASRYGTTYRHIMNLNGLNSFLIFPGQQLKVSGSVSSNSHSSYNSNSGGSSSTYTVRYGDSLSSIASRYGTTYQHIMRLNGLNNFFIYPGQKLRVSGSASSNTYSTRSAQSTYYSSPVFNHRNLYDWGQCTWHVFNRRAAIGKGISTYWWNANNWDNAAARDGYRIDGNPTVGSIAQSDAGYYGHVAFVERVNSNGSILVSEMNFSASPGILTYRTIPAYQVRNYKFIH”: the protein production result is listed as “failed”.
